# Source: patent US20130005646A1 (Novo Nordisk, published 2013)
# Starred links: 1 amine or outer side, 2 acyl side, 3 side chain; linkers in the order of their positions; H or OH if unused. Positions of bridges follow the written chain, without caps; N, C: chain ends. *: point of attachment. C20 diacid = O=C(O)CCCCCCCCCCCCCCCCCCC(=O)*; γGlu = O=C(O)[C@H](CCC(=O)[*:2])N[*:1]
# T1: human calcitonin (a) receptor (human, UniProt P30988 25-474)
# T1 sequence (looked up): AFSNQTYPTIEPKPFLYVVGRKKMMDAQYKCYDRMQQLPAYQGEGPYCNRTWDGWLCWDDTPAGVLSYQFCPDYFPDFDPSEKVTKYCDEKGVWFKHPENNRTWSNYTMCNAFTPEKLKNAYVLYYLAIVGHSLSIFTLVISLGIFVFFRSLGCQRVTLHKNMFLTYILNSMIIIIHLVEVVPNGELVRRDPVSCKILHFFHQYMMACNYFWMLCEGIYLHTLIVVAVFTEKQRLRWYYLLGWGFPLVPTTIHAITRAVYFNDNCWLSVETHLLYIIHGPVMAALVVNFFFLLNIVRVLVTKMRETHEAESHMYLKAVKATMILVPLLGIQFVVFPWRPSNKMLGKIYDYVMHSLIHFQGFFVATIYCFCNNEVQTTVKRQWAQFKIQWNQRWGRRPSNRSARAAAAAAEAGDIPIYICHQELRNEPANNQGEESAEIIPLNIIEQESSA
# T2: human amylin 3(a) receptor (human calcitonin receptor + RAMP-3) (human, UniProt P30988 25-474; O60896 24-148)
# T2 sequence (looked up) 1: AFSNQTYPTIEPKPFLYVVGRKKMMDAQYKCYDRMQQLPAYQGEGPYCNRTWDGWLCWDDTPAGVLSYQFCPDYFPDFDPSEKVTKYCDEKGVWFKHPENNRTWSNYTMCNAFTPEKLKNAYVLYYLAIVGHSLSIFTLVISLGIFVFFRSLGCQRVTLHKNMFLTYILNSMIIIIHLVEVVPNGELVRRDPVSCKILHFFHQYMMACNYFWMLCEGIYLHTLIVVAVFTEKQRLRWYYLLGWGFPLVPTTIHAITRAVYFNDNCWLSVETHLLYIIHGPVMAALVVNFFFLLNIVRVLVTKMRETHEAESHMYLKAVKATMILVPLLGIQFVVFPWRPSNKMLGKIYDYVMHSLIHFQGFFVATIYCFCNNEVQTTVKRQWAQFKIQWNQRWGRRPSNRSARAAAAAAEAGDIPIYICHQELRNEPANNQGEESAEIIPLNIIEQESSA
# T2 sequence (looked up) 2: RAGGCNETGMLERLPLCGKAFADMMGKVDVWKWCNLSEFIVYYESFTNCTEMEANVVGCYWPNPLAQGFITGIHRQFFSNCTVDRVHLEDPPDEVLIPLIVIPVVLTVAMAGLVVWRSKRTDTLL
# How the values were obtained:
# [1] = biological target: T1, human calcitonin (a) receptor; assay: cell-based or functional assay
# [2] = biological target: T2, human amylin 3(a) receptor (human …); assay: cell-based or functional assay
Binder,CTa receptor human EC50 [1],Amylin receptor human EC50 [2]
{C20 diacid-γGlu}-ERCNTATCATQRLAEFLRHSSNNFGPILPPTNVGSNTP-NH2 (disulfide 3-8; SMILES CC[C@H](C)[C@H](NC(=O)[C@@H]1CCCN1C(=O)CNC(=O)[C@H](Cc1ccccc1)NC(=O)[C@H](CC(N)=O)NC(=O)[C@H](CC(N)=O)NC(=O)[C@H](CO)NC(=O)[C@H](CO)NC(=O)[C@H](Cc1c[nH]cn1)NC(=O)[C@H](CCCNC(=N)N)NC(=O)[C@H](CC(C)C)NC(=O)[C@H](Cc1ccccc1)NC(=O)[C@H](CCC(=O)O)NC(=O)[C@H](C)NC(=O)[C@H](CC(C)C)NC(=O)[C@H](CCCNC(=N)N)NC(=O)[C@H](CCC(N)=O)NC(=O)[C@@H](NC(=O)[C@H](C)NC(=O)[C@@H]1CSSC[C@H](NC(=O)[C@H](CCCNC(=N)N)NC(=O)[C@H](CCC(=O)O)NC(=O)CC[C@H](NC(=O)CCCCCCCCCCCCCCCCCCC(=O)O)C(=O)O)C(=O)N[C@@H](CC(N)=O)C(=O)N[C@@H]([C@@H](C)O)C(=O)N[C@@H](C)C(=O)N[C@@H]([C@@H](C)O)C(=O)N1)[C@@H](C)O)C(=O)N[C@@H](CC(C)C)C(=O)N1CCC[C@H]1C(=O)N1CCC[C@H]1C(=O)N[C@H](C(=O)N[C@@H](CC(N)=O)C(=O)N[C@H](C(=O)NCC(=O)N[C@@H](CO)C(=O)N[C@@H](CC(N)=O)C(=O)N[C@H](C(=O)N1CCC[C@H]1C(N)=O)[C@@H](C)O)C(C)C)[C@@H](C)O),0.168 nM,0.066 nM
{C20 diacid-γGlu}-EERCNTATCATQRLAEFLRHSSQNFGPILPPTNVGSNTP-NH2 (disulfide 4-9; SMILES CC[C@H](C)[C@H](NC(=O)[C@@H]1CCCN1C(=O)CNC(=O)[C@H](Cc1ccccc1)NC(=O)[C@H](CC(N)=O)NC(=O)[C@H](CCC(N)=O)NC(=O)[C@H](CO)NC(=O)[C@H](CO)NC(=O)[C@H](Cc1c[nH]cn1)NC(=O)[C@H](CCCNC(=N)N)NC(=O)[C@H](CC(C)C)NC(=O)[C@H](Cc1ccccc1)NC(=O)[C@H](CCC(=O)O)NC(=O)[C@H](C)NC(=O)[C@H](CC(C)C)NC(=O)[C@H](CCCNC(=N)N)NC(=O)[C@H](CCC(N)=O)NC(=O)[C@@H](NC(=O)[C@H](C)NC(=O)[C@@H]1CSSC[C@H](NC(=O)[C@H](CCCNC(=N)N)NC(=O)[C@H](CCC(=O)O)NC(=O)[C@H](CCC(=O)O)NC(=O)CC[C@H](NC(=O)CCCCCCCCCCCCCCCCCCC(=O)O)C(=O)O)C(=O)N[C@@H](CC(N)=O)C(=O)N[C@@H]([C@@H](C)O)C(=O)N[C@@H](C)C(=O)N[C@@H]([C@@H](C)O)C(=O)N1)[C@@H](C)O)C(=O)N[C@@H](CC(C)C)C(=O)N1CCC[C@H]1C(=O)N1CCC[C@H]1C(=O)N[C@H](C(=O)N[C@@H](CC(N)=O)C(=O)N[C@H](C(=O)NCC(=O)N[C@@H](CO)C(=O)N[C@@H](CC(N)=O)C(=O)N[C@H](C(=O)N1CCC[C@H]1C(N)=O)[C@@H](C)O)C(C)C)[C@@H](C)O),0.547 nM,0.465 nM
{C20 diacid-γGlu}-EERCNTATCATQRLAEFLRHSSQNFGPILPPTNVGSQTP-NH2 (disulfide 4-9; SMILES CC[C@H](C)[C@H](NC(=O)[C@@H]1CCCN1C(=O)CNC(=O)[C@H](Cc1ccccc1)NC(=O)[C@H](CC(N)=O)NC(=O)[C@H](CCC(N)=O)NC(=O)[C@H](CO)NC(=O)[C@H](CO)NC(=O)[C@H](Cc1c[nH]cn1)NC(=O)[C@H](CCCNC(=N)N)NC(=O)[C@H](CC(C)C)NC(=O)[C@H](Cc1ccccc1)NC(=O)[C@H](CCC(=O)O)NC(=O)[C@H](C)NC(=O)[C@H](CC(C)C)NC(=O)[C@H](CCCNC(=N)N)NC(=O)[C@H](CCC(N)=O)NC(=O)[C@@H](NC(=O)[C@H](C)NC(=O)[C@@H]1CSSC[C@H](NC(=O)[C@H](CCCNC(=N)N)NC(=O)[C@H](CCC(=O)O)NC(=O)[C@H](CCC(=O)O)NC(=O)CC[C@H](NC(=O)CCCCCCCCCCCCCCCCCCC(=O)O)C(=O)O)C(=O)N[C@@H](CC(N)=O)C(=O)N[C@@H]([C@@H](C)O)C(=O)N[C@@H](C)C(=O)N[C@@H]([C@@H](C)O)C(=O)N1)[C@@H](C)O)C(=O)N[C@@H](CC(C)C)C(=O)N1CCC[C@H]1C(=O)N1CCC[C@H]1C(=O)N[C@H](C(=O)N[C@@H](CC(N)=O)C(=O)N[C@H](C(=O)NCC(=O)N[C@@H](CO)C(=O)N[C@@H](CCC(N)=O)C(=O)N[C@H](C(=O)N1CCC[C@H]1C(N)=O)[C@@H](C)O)C(C)C)[C@@H](C)O),1.19 nM,1.13 nM
{C20 diacid-γGlu}-ERECNTATCATQRLAEFLRHSSQNFGPILPPTNVGSNTP-NH2 (disulfide 4-9; SMILES CC[C@H](C)[C@H](NC(=O)[C@@H]1CCCN1C(=O)CNC(=O)[C@H](Cc1ccccc1)NC(=O)[C@H](CC(N)=O)NC(=O)[C@H](CCC(N)=O)NC(=O)[C@H](CO)NC(=O)[C@H](CO)NC(=O)[C@H](Cc1c[nH]cn1)NC(=O)[C@H](CCCNC(=N)N)NC(=O)[C@H](CC(C)C)NC(=O)[C@H](Cc1ccccc1)NC(=O)[C@H](CCC(=O)O)NC(=O)[C@H](C)NC(=O)[C@H](CC(C)C)NC(=O)[C@H](CCCNC(=N)N)NC(=O)[C@H](CCC(N)=O)NC(=O)[C@@H](NC(=O)[C@H](C)NC(=O)[C@@H]1CSSC[C@H](NC(=O)[C@H](CCC(=O)O)NC(=O)[C@H](CCCNC(=N)N)NC(=O)[C@H](CCC(=O)O)NC(=O)CC[C@H](NC(=O)CCCCCCCCCCCCCCCCCCC(=O)O)C(=O)O)C(=O)N[C@@H](CC(N)=O)C(=O)N[C@@H]([C@@H](C)O)C(=O)N[C@@H](C)C(=O)N[C@@H]([C@@H](C)O)C(=O)N1)[C@@H](C)O)C(=O)N[C@@H](CC(C)C)C(=O)N1CCC[C@H]1C(=O)N1CCC[C@H]1C(=O)N[C@H](C(=O)N[C@@H](CC(N)=O)C(=O)N[C@H](C(=O)NCC(=O)N[C@@H](CO)C(=O)N[C@@H](CC(N)=O)C(=O)N[C@H](C(=O)N1CCC[C@H]1C(N)=O)[C@@H](C)O)C(C)C)[C@@H](C)O),1.13 nM,0.232 nM
{C20 diacid-γGlu}-ERECNTATCATQRLAEFLRHSSQNFGPILPPTNVGSQTP-NH2 (disulfide 4-9; SMILES CC[C@H](C)[C@H](NC(=O)[C@@H]1CCCN1C(=O)CNC(=O)[C@H](Cc1ccccc1)NC(=O)[C@H](CC(N)=O)NC(=O)[C@H](CCC(N)=O)NC(=O)[C@H](CO)NC(=O)[C@H](CO)NC(=O)[C@H](Cc1c[nH]cn1)NC(=O)[C@H](CCCNC(=N)N)NC(=O)[C@H](CC(C)C)NC(=O)[C@H](Cc1ccccc1)NC(=O)[C@H](CCC(=O)O)NC(=O)[C@H](C)NC(=O)[C@H](CC(C)C)NC(=O)[C@H](CCCNC(=N)N)NC(=O)[C@H](CCC(N)=O)NC(=O)[C@@H](NC(=O)[C@H](C)NC(=O)[C@@H]1CSSC[C@H](NC(=O)[C@H](CCC(=O)O)NC(=O)[C@H](CCCNC(=N)N)NC(=O)[C@H](CCC(=O)O)NC(=O)CC[C@H](NC(=O)CCCCCCCCCCCCCCCCCCC(=O)O)C(=O)O)C(=O)N[C@@H](CC(N)=O)C(=O)N[C@@H]([C@@H](C)O)C(=O)N[C@@H](C)C(=O)N[C@@H]([C@@H](C)O)C(=O)N1)[C@@H](C)O)C(=O)N[C@@H](CC(C)C)C(=O)N1CCC[C@H]1C(=O)N1CCC[C@H]1C(=O)N[C@H](C(=O)N[C@@H](CC(N)=O)C(=O)N[C@H](C(=O)NCC(=O)N[C@@H](CO)C(=O)N[C@@H](CCC(N)=O)C(=O)N[C@H](C(=O)N1CCC[C@H]1C(N)=O)[C@@H](C)O)C(C)C)[C@@H](C)O),2.19 nM,0.411 nM
{C20 diacid-γGlu}-ERECNTATCATQRLAEFLRHSSQNFGPILPPTQVGSQTP-NH2 (disulfide 4-9; SMILES CC[C@H](C)[C@H](NC(=O)[C@@H]1CCCN1C(=O)CNC(=O)[C@H](Cc1ccccc1)NC(=O)[C@H](CC(N)=O)NC(=O)[C@H](CCC(N)=O)NC(=O)[C@H](CO)NC(=O)[C@H](CO)NC(=O)[C@H](Cc1c[nH]cn1)NC(=O)[C@H](CCCNC(=N)N)NC(=O)[C@H](CC(C)C)NC(=O)[C@H](Cc1ccccc1)NC(=O)[C@H](CCC(=O)O)NC(=O)[C@H](C)NC(=O)[C@H](CC(C)C)NC(=O)[C@H](CCCNC(=N)N)NC(=O)[C@H](CCC(N)=O)NC(=O)[C@@H](NC(=O)[C@H](C)NC(=O)[C@@H]1CSSC[C@H](NC(=O)[C@H](CCC(=O)O)NC(=O)[C@H](CCCNC(=N)N)NC(=O)[C@H](CCC(=O)O)NC(=O)CC[C@H](NC(=O)CCCCCCCCCCCCCCCCCCC(=O)O)C(=O)O)C(=O)N[C@@H](CC(N)=O)C(=O)N[C@@H]([C@@H](C)O)C(=O)N[C@@H](C)C(=O)N[C@@H]([C@@H](C)O)C(=O)N1)[C@@H](C)O)C(=O)N[C@@H](CC(C)C)C(=O)N1CCC[C@H]1C(=O)N1CCC[C@H]1C(=O)N[C@H](C(=O)N[C@@H](CCC(N)=O)C(=O)N[C@H](C(=O)NCC(=O)N[C@@H](CO)C(=O)N[C@@H](CCC(N)=O)C(=O)N[C@H](C(=O)N1CCC[C@H]1C(N)=O)[C@@H](C)O)C(C)C)[C@@H](C)O),3.71 nM,1.06 nM
